Source: article doi:10.1101/786475 (bioRxiv, 2019)

Legend:
Assay in all cases: peptide or protein array
[1] = target: T1, Ski8p (spotted on the yeast ProtoArray) (S. cerevisiae, UniProt Q02793 1-397)
T1 sequence (looked up): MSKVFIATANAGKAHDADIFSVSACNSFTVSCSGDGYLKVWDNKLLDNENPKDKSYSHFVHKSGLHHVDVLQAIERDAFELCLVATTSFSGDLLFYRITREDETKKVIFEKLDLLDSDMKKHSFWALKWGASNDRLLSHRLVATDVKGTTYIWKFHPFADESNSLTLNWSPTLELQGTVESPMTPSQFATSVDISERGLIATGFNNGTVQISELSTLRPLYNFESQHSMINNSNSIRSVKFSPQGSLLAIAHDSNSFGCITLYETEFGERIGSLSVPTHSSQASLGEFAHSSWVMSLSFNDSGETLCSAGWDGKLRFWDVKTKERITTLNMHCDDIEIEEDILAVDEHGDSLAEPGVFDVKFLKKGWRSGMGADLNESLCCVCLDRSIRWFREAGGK

[2] = target: T2, Aip1p (spotted on the yeast ProtoArray) (S. cerevisiae, UniProt P46680 1-615)
T2 sequence (looked up): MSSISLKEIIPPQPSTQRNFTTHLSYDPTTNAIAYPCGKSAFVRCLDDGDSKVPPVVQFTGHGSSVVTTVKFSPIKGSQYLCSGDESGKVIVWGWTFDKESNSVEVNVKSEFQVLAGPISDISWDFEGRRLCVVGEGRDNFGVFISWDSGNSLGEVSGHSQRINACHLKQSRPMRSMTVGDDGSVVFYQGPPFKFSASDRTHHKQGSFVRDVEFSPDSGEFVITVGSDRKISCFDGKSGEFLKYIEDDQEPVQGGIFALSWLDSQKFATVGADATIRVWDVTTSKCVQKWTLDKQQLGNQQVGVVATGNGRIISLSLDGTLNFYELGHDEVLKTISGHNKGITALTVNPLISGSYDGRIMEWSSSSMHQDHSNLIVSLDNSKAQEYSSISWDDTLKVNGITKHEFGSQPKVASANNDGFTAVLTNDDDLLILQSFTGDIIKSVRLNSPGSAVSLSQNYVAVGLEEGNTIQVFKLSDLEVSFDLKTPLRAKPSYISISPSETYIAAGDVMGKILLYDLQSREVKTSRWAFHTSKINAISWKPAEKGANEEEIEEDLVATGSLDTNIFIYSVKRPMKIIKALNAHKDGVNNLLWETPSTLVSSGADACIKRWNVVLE

[3] = target: Mal12p (spotted on the yeast ProtoArray) (S. cerevisiae, UniProt P53341 1-584)
[4] = target: T3, Eno2p (spotted on the yeast ProtoArray) (S. cerevisiae, UniProt P00925 1-437)
T3 sequence (looked up): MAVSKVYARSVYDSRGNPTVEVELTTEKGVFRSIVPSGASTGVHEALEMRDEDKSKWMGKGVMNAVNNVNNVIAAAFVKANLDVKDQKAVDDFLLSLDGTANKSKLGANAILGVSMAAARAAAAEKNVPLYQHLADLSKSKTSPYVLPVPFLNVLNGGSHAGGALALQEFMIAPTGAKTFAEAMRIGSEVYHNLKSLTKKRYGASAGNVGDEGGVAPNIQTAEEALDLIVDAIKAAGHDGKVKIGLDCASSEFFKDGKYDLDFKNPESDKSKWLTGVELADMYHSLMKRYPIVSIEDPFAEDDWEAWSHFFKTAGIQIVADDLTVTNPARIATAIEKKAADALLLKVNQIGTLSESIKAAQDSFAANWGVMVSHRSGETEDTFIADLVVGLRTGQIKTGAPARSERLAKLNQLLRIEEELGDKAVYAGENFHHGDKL

[5] = target: T4, Drs1p (spotted on the yeast ProtoArray) (S. cerevisiae, UniProt P32892 1-752)
T4 sequence (looked up): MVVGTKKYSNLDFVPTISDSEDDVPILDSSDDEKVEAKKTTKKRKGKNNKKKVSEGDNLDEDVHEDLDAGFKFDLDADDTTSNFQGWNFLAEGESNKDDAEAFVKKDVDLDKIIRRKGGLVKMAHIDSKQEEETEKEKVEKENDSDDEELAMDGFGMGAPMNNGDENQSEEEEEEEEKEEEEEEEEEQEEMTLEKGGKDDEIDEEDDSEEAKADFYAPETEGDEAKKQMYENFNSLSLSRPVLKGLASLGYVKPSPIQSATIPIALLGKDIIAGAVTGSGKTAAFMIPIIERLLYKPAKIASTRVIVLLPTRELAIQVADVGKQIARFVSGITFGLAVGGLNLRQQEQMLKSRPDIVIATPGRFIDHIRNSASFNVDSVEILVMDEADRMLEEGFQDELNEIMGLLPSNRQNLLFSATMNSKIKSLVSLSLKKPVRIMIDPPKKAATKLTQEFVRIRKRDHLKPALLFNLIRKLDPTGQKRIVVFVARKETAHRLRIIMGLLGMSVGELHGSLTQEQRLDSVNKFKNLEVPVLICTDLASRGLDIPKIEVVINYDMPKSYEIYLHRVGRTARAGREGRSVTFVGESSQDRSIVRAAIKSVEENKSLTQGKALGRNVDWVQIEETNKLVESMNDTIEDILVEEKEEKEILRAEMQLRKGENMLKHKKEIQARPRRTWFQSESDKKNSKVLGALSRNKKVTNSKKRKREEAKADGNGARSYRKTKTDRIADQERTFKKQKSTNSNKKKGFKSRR

Chain of Mal12p (spotted on the yeast ProtoArray) (P53341 whole entry): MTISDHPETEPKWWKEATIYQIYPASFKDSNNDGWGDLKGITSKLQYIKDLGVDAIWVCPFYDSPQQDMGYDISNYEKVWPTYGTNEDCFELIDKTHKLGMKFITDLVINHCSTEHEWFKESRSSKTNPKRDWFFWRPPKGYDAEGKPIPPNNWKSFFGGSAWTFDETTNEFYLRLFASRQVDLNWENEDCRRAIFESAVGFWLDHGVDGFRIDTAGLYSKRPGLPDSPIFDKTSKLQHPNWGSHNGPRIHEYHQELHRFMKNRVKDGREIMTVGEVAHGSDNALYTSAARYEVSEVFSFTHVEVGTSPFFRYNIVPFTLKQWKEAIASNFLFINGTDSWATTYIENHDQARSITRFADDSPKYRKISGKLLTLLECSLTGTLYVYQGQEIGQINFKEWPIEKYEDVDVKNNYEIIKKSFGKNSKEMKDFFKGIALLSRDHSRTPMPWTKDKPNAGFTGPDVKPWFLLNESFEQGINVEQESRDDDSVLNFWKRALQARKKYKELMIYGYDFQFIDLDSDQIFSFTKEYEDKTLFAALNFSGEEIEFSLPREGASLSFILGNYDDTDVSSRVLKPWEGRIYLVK

- binding result [1]: binds
- binding result [2]: binds
- binding result [3]: binds
- binding result [4]: binds
- binding result [5]: binds
B1: purified and biotinylated cytoplasmic domain of the Msb2p protein (HIS-Msb2p^CYT) (domain or fragment, S. cerevisiae, UniProt P32334 1207-1306, looked up)
chain: AFKYIIRRRIQSQEIIKNPEISSISSSEFGGEKNYNNEKRMSVQESITQSMRIQNWMDDSYYGHGLTNNDSTPTRHNTSSSIPKISRPIASQNSLGWNEV
modifications: biotinylated in vitro (sites not given)
